The RNAGym collection of RNA variant scans (doi:10.1038/ncomms11558)

B1: mRNA-splicing (parent)
chain: GAUCCAGAUCUAACUUGGGGUGGCUUUGUCUUCUUCUUUUGCCAAUUCCACUAAUUGUUUGGG

Variants of: B1
Assay: exon inclusion enrichment score (log2 ratio to wild type); higher = more inclusion; FAS exon 6 minigene, HEK293

Variant | exon inclusion enrichment score
U56G | 0.059
G57A | -0.066
G57C | -0.537
G57U | 0.003
U58A | 0.099
U58C | -0.116
U58G | -0.27
U59A | -0.31
U59C | -0.032
U59G | -0.228
U60A | -2.55
U60C | -0.19
U60G | -0.709
G61A | -1.32
G61C | 0.061
G61U | -0.154
G62A | -0.115
G62C | -0.199
G62U | -0.581
G63A | -5.7
G63C | -6.23
G63U | -5.1
